Data set [1] deals with T1, DEN2-NS1 (Thailand/16681/84) (Dengue virus 2) (UniProt P29990).
T1 sequence: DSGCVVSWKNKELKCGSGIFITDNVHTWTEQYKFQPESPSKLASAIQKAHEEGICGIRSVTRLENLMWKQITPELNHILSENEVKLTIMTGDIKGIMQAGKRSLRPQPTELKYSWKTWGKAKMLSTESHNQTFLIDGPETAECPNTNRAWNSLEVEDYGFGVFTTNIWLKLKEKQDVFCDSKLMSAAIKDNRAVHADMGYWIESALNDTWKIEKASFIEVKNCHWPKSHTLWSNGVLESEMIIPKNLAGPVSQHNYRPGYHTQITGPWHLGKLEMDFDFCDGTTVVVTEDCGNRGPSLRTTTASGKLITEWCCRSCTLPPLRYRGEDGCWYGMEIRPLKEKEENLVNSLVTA
In words: EMSA.

Data set [2] has as its target T2, DEN4-NS1 (Dominica/814669/1981) (Dengue virus 4) (UniProt P09866).
T2 sequence: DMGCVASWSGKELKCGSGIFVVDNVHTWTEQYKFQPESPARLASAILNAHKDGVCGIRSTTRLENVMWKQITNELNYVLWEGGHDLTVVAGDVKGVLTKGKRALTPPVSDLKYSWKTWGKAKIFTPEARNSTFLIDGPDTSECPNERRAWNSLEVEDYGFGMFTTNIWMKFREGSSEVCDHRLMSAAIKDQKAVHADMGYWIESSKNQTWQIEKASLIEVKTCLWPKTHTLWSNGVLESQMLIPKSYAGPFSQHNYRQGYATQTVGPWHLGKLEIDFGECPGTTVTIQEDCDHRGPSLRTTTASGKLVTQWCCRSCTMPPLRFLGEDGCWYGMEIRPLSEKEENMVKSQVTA
In words: EMSA. Particulars: Ds at both x; 5' biotin-dT; 2 M urea gel.

In data set [3] the target is T2, DEN4-NS1 (Dominica/814669/1981) (Dengue virus 4). In words: SPR. Background: In SPR one partner is held on a chip, and binding of the other changes the refractive index at the surface.
Data set [4] concerns the target T3, DEN1-NS1 (Nauru/Western Pacific/1974) (Dengue virus 1) (UniProt P17763).
T3 sequence: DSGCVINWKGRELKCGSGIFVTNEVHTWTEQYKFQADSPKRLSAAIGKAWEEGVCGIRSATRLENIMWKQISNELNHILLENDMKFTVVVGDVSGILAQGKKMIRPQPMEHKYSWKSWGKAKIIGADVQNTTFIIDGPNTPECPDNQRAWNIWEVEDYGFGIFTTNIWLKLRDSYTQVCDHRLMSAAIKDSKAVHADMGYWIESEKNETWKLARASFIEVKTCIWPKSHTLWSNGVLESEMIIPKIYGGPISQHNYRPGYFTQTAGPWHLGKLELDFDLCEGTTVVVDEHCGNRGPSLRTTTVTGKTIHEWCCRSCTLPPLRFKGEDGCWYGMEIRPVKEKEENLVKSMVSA
In words: SPR. The note with it: Ds unnatural base at both n; biotin-dT in 3' mini-hairpin CGCG(L)AGCG.

For data set [5], the target named is T1, DEN2-NS1 (Thailand/16681/84) (Dengue virus 2). In words: SPR.
Data set [6] has as its target SIN DEN1-NS1 (Singaporean variant, 96.3% homology) (Dengue virus 1) (UniProt P33478). In words: SPR. The note with it: Ds at both x, 25 C, 150 mM NaCl, 1 mM MgCl2.
The target of data set [7] is T4, DEN3-NS1 (Sri Lanka D3/H/IMTSSA-SRI/2000/1266) (Dengue virus 3) (UniProt Q6YMS4).
T4 sequence: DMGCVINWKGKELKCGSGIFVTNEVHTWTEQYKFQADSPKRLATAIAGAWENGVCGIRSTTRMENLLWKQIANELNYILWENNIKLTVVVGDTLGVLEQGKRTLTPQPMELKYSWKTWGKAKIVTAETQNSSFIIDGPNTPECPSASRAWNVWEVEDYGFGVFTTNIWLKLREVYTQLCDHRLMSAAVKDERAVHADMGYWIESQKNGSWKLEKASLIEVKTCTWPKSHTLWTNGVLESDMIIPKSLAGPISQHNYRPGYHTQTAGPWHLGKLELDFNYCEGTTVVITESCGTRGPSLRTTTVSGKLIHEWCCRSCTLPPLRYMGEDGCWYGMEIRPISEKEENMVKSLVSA
In words: SPR. Particulars: Ds at both n; biotin-dT in 3' mini-hairpin.

[8] abbreviates: two Ds and one diol-Pa, biotin-dT in 3' mini-hairpin.
The mark [9] stands for this setting: Ds at both n, biotin-dT in 3' mini-hairpin.

Like-named read-outs stand apart in the source and are kept apart here.

“GGCTGGTCCGACTGGGAACAAGNGGCGGGAGGGANGGGTGTGGGTGCGACAAGCGGACCAGCCCGCGTAGCG [D2-1d-72h(A) (D2-1d-72h-b)]”: the binding signal in data set [1] (Ds at position 23, diol-Pa at position 35, biotin-dT in 3' mini-hairpin) was > 40 % shifted. As for “TGATATGGTCTACTGTATAATCCGCNTTCGTCATGTGGNTTGGATCTGGGTCTGGCAGACAAGCGGAGTAGTTAGACC [D4-4-78]”, the binding signal in data set [2] was > 60 % shifted. As to “GGTCCGNCTGGGAACAAGNGGCGGGAGGGANGGGTGTGGGTGCGACAAGCGGCGCGTAGCG [D2-1d-61h]”, the binding signal in data set [1] (setting [8]) is > 60 % shifted.

For the sequence “GGCTGGTCCGNCTGGGAACAAGNGGCGGGAGGGANGGGTGTGGGTGCGACAAGCGGACCAGCCCGCGTAGCG [AptD2e (Cont-D2, natural-base variant)]”, in data set [1], the binding signal is < 10 % shifted. On to “CTCCGCTGTCAAACGGNTATCACGGCNACACACCTGCGGACAGCGGAGCGCGTAGCG [D4-1-57h]”, for which the Kd in data set [3] (setting [9]) was 0.029 nM. As for “TGATATGGTCTACTGTGGCGCGAGGGAATCNACGCNTATCAAATANAAACAGCTAATGACAAGCGGAGTAGTTAGACC [D4-3-78]”, in data set [3] (Ds at x (three), 5' biotin-dT), the Kd is 0.034 nM. In data set [4], “CCCCAGACGGACTGGTGTNCTCGGNATGGCCGTCTGGGGCGCGTAGCG [D1-1-48h (AptD1)]” came in with a Kd of 0.182 nM. Regarding “GGCTGGTCCGNCTGGGAACAAGNGGCGGGAGGGANGGGTGTGGGTGCGACAAGCGGACCAGCCCGCGTAGCG [D2-1d-72h-c]”, the binding signal in data set [1] (Ds at 11, diol-Pa at 35, biotin-dT in 3' mini-hairpin) is < 10 % shifted. Regarding “GGCTGGTCCGNCTGGGAACAAGNGGCGGGAGGGANGGGTGTGGGTGCGACAAGCGGACCAGCCCGCGTAGCG [D2-1d-72h-d]”, the binding signal in data set [1] (Ds at 11 and 23, biotin-dT in 3' mini-hairpin) is < 10 % shifted.

As for “TTTTCGCACTCCATGATATGGTCTACTGGTCCGNCTGGGAACAAGNGGCGGGAGGGANGGGTGTGGGTGCGACAAGCGGAGTAGTTAGACCGTCAAA [D2-1-96(3Ds)]”, the binding signal in data set [1] (three Ds) was < 10 % shifted. Consider “GGCTGGTCCGNCTGGGAACAAGNGGCGGGAGGGANGGGTGTGGGTGCGACAAGCGGACCAGCCCGCGTAGCG [D2-1d-72h (AptD2)]”, for which the dissociation constant Kd in data set [5] (Ds at positions 11 and 23, diol-Pa at position 35, biotin-dT in 3' mini-hairpin) is 0.104 nM. Regarding “TGATATGGTCTACTGTCTCAACGGTTGTCAAACGGNTATCACGGCNACACACCTGCGGACAAGCGGAGTAGTTAGACC [D4-1-78]”, the Kd in data set [3] (Ds at both x, 5' biotin-dT) was found to be 0.062 nM. That is a picomolar value. As to “TGATATGGTCTACTGTCACANATCGCCGTAAAGNCGAAGAGCTGCGGAATCTAAGGTGACAAGCGGAGTAGTTAGACC [D4-2-78]”, in data set [2], the binding signal is > 60 % shifted.

“TTTTCGCACTCCATGATATGGTCTACTGAGCGAGACGATGCTGCTAAANTACGCCGTGGTNACGAAGACAGACAAGCGGAGTAGTTAGACCGTGAAA [19D1F1 (isolate, AptD1b)]” showed a dissociation constant Kd in data set [6] (5' biotin) of 0.0091 nM. On to “CGGCGGAGACGTAACGCNTATCAAATCNAAACAGCTTAGGGTCCGCCGCGCGTAGCG [D4-3-57h (AptD4)]”, for which the Kd in data set [3] (setting [9]) was 0.03 nM. Regarding “GACGGTCTACTGGTCCGNCTGGGAACAAGNGGCGGGAGGGANGGGTGTGGGTGCGACAAGCGGAGTAGTTAGACCGTCCGCGTAGCG [D2-1d-87h]”, the Kd in data set [5] (setting [8]) was determined as 0.105 nM. In other words, the sub-nanomolar range. As to “CCGCTTGTCATCTANCCTGGCCNTGTGGTACTGTAACGGCTGACAAGCGGCGCGTAGCG [D3-2-59h (AptD3)]”, in data set [7], the equilibrium dissociation constant (Kd) turned out to be 0.057 nM.

Take “GCACTCCATGATATGGTCTACTGAGCGAGACGATGCTGCTAAANTACGCCGTGGTNACGAAGACAGACAAGCGGAGTGTCGCGTAGCG [19D1F1-3]”: the equilibrium dissociation constant (Kd) in data set [6] (biotin-dT in 3' mini-hairpin) is 0.027 nM. With “TTTTCGCACTCCATGATATGGTCTACTGGTCCGNCTGGGAACAAGNGGCGGGAGGGANGGGTGTGGGTGCGACAAGCGGAGTAGTTAGACCGTCAAA [D2-1y-96]”, in data set [5] (two Ds and one diol-Px, 5' biotin), the Kd came to 0.041 nM.

As usually defined, the Kd is the free concentration of one partner at which half of the binding sites on the other are occupied at equilibrium, for simple one-to-one binding.

The record behind these values is patent US20220315926.
